# Assay: yeast display, Sf9 membrane polyspecificity reagent, FACS + sequencing; frameworks hold sequencing errors
# Method in brief: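 Genes from sorted yeast were amplified by colony PCR, read by MiSeq 2 × 250 sequencing and filtered on CDR length. These cells carried a synthetic nanobody library in Saccharomyces cerevisiae BJ5465 and were sorted by FACS into low and high (top ~1%) gates on anti-HA and streptavidin fluorescence. Polyreactivity is labelled according to the gate of origin.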
row,Sequence,polyreactivity (PSR sort gate)
1,QVQLVESGGGLVQAGGSLRLSCAASGRIFGHYAMGWYRQAPGKERELVAAISQSGTNTYYADSVKGRFTISRDNAKNTVYLQMNSLKPEDTAVYYCAAKPPRRYQLMDYWGQGTQVTVSS,high polyreactivity
2,QGQLVESGGGLVQAGGSLRLSCAASGFTFPHYAMGWYRQAPGKERELVAAISWSGGSTFSADSVKGRFTISRDTAKNNVYLQMNSLKPADTAVYYCAARSRSWTPYYYWGQGTQVTVSS,high polyreactivity
3,QVQLVESGGGLVQAGVRLRLSCPASGFIFDWYTMGWYRQAPGKERELVAAITIGGSTDYADSVKGRFTISRDNAKNTVYLQMNSLKPEDTAVYYCNALWYLSGTWYDYWGQGTQVTVSS,low polyreactivity
4,QVQLVESGGGLVQAGGSLRLSCAASGSIFSFYAMGGYRQPPGKEREFVATITYGSGSTHYADSVKGRFTISRDNAKITVYLQLNSLKPEDTAVYYCAAETVRYEWGESPAALFDYWGQGTQVTVSS,low polyreactivity
5,QVQLVESGGGLVQAGGSLRLSCAASGSTFGRYVMGWYRQAPGKERELVAAISYSGGRTYYADSVKGRFTISRDNAKNTVYLQMNSLKPEDTAVYYCAARVRTVRNTYYSWGQGTQVTVSS,high polyreactivity
6,QVQLVESGGGLVQAGGSLRLSCAASGSIFVNYAMGWFRQAPGKERELVAAITRSGGRTYYADSVKGRFTISRDNAKNTVYLQMNSLKPEDTAVYYCAARLGYAGNRDGSWGQGTQVTVSS,high polyreactivity
7,QVQLVESGGGLVQAGGSLRLSCAASGITFYYYAMGWYTQAPGKERELVAAISDNGSRTYYADSVKGRFTISRDNAQNTVYLQMNSLKPEDTAVYYCAAEGSYGYDYWGQGTQVTVSS,high polyreactivity
8,QVQLVESGGGLVQAGGSLRLICAASGSTFIKYTMGWYRPAPGKERELVAAISRIGGSTYYADSVKGRFTISRDNAKNTVYLQMNSLKPEDTAVYYCAAPYPIGHDWGQGTQVTVSS,low polyreactivity
9,QVQLVESGGGLVQAGGSRSLSCAASGFTFQGNVMGWYTQAPGKERELVAAISGGGGRTYYADYVKGRFTISRDNAKYTVYLQMNSLIPEDTAVYYCIVRLLGSNRAGVRCDYWGQGTQVTVSS,high polyreactivity
10,QVQLVESGGGLVQAGGSLRLSCAASGSTFYRYAMGWYRQAPGKERELVADITRSGDSTYYADSVKGRFTISRDNAKNTVYLQMNSLKPEDTAVYYCAREYPTIRYRLGYWGQGTQVTVSS,low polyreactivity
11,QVQLVESGGGLVQAGGSLRLRCAASGGTFSGYTMGWYRQAPGKERELVAAINWSGGRTYYADSVKGRFTISRDNAKNTVYLQMNSLKPEDTAVYYCNKYGLYYREYDYWGQGTQVTVSS,high polyreactivity
12,QVQLVESGGGLVQAGGSLRLSCAASGITFSFYAMGWYRPAPGKERELVAAINGRGGRTYYADSVKGRFTISRDNAKNTVYLQMNSLKPEDTAVYYCAAVVWRTDYDYWGQGTQVTVSS,low polyreactivity
13,QVQLVESGGGLVQAGGSLRLSCAASRNIFDTYVMGWYRQAPGKETELVAANTSDGGTYYADSVKGRFTISRDNAKNTVFFQMNSLKPVDTAVYSCAADTYYYPIHDYWGQGTQVTVSS,low polyreactivity
14,QVQLVESGGGLVQAGGSLRLSCAASGSTFYSNAMGWYRQAPGKERELVAGIDTSDGSTNYADSVKGRFTISRDHAMNTVYLQMNSLKPEDTAVYYCAADYTQPGFVSYDYWGQGSQVTVSS,low polyreactivity
15,QVQLVESGGGLVQAGGSLRLSCAASGRTFYLYAMGWYRQAPGKERELVDTITESVGNTYYADSVKGRFTISRDNAKNTVYLQMNSLKPEDTAVYYCAATYKYYLYQPKTLFREGDYWGQGTQVTVSS,low polyreactivity
16,QVQLVESGGGLVQAGGSLRLSCAASGFIFPNYAMGWYRQAPGKVRELVAAISVRGGNTYYADSVKGRFTISRDNAKNTVYLQMNSLKPEDTAVYYCNAVLRSGYFPEYYYWGQVTQVTVSS,high polyreactivity
17,QVQLVESGGGLVQAGGSLRLSCAASGMILGVNVMGWYRQAPGKERELVAAISGGGRTYYADSVKGRFTISRDNAKNTVYLLMNSLKPEDTAVYYCAARVYSLGYGGDYWGQGTHVTVSS,high polyreactivity
18,QVQLVESGGGLVQAGGSLRLSCAASGRTLLLNTMGWYRQAPGKERELVAAISWRDGSTYYADSVKGRFTFSRDKAKNTVYLLMNSLKPEDTAVYYCNARLSGRSQYDVRFDYWGQGTQVTVSS,low polyreactivity
19,QVQLVESGGGLVQAGGSLRLSCAASGSTIGFYAMGWYRQAPGKERELVAVISSGDSTYYADSVKGRFTISRDNAKNTVYLQMNSLKPEDTAVYYCAKDALVIDGGGGYDYWGQGTQVTVSS,low polyreactivity
20,QVQLVESGGGLVQAGGSLRLSCAASGHILFKYTMGWYRQAPGKERELVAAISRSGGTTYYADSVKGRFTISRDNAKNTVYLQMNSLKPEDTAVYYCAARVTPGRNGGGYWGQGTQVTVSS,high polyreactivity
21,QVQLVESGGGVVQAGGSLRLSCAASGSTFDVYAMGWYRPAPGKERELVAAITSGGTTNYADSVKGRFTISRDNAQNTVYLQLNSLKPEDTAVYYCAADSPWGGGYFVLYNYWGQGTQVTVSS,low polyreactivity
22,QVQLVESGGGLVQAGGSLRLSCAASGSTFGVYAMGWYRQAPGKERELVAAISESGGNTYYADSVKGRFTISRDNAKNTVYLQLNSLKPEDPAVYYCNTDVVVVHYIQAYYWGQGTQVTVSS,low polyreactivity

row,Sequence,polyreactivity (PSR sort gate)
1,QVQLVESGGGLVQAGGSLRLSCAASGSTSVDYTMGWYRQAPGKERELVAAIDYNGDSTYYADSVKGRFTISRDNAKNTVYLQMNSLKPEDTAVYYCAADYLSFVVVKLYGYWGQGTQVTVSS,low polyreactivity
2,QVQLEESGGGLVQAGGSLRLSCAASGSISYYYGMGWYRQAPGKERELVAAISTRGGSTYYADSVKGRFTISRDNAKNTVYLQMNSLKPEDTAVYYCNKVYYKRFYYWGQGTQVTVSS,high polyreactivity
3,QDQLVESGGGLVQAGGSHRLSCAASGFISDKNAMGWYRQAPRKERELVAAISQRGDRTYYADSVKGRFTISRDNAKNTVYLQMNSLKPEDTAVYYCGYLVRYHHLRYWGQGTQVTVSS,high polyreactivity
4,QVQLVESGGGLVQAGGSLRLSCAASGRNFNYNAMGWYRQAPGKERELVAVISWSGRTYYADSVKGRFTISRDNAKNTVYLLMNSLKPEDTAVYYCNKRSYRVLYGYWGQGTQVTVSS,high polyreactivity
5,QFQLVESGGGLVQAGGSLRLSCAASGFIFTNVMGWYRQSPGKERELVAAISGRGTSTYYADSVKGRFTISRDNAKNTVYLQMNSLKPEDTAVYYCAAYFTSRLDYWGQGTQVTVSS,high polyreactivity
6,QVKLVESGGGLVQAGGSLRLTCAASGSNFDINAMGWYRQAPGKERELVAAISWSGGDTYADSVKGRFTISRDNAKITVYLQMNCLKPEDTAVYYCDTGDPHEEQYYYDYCGQGTQVTVSS,low polyreactivity
7,QVQLVESGGGLVQAGGSLRLSCAASGSIFGAYDMGWSRQAPGKERELVASITSGDSTNYADSVTGRFTISRDNAKNTVYLQMNSLKPEDTAVYYCAADLAVAVAADYDSWGQGTQVTVSS,low polyreactivity
8,QVQLVESGGGLVQAGGSLRLSCAASGRIFYWYVMGWYRQAPGKERELVASISWSGGSTYYADSVKGRFTISRDNAKNTVYLQMNSLKPEDTAVYYCNAGSVYTVSLPGHPYDYWGQGTQVTVSS,low polyreactivity
9,QVQLVESGGGLVQAGGSLRLSCAASGITFYRYAMGWYRQAPGKDRELVAVISSGGSTNYADSVKGRFTISRDNAKNTVYLQMNSLKPEDTAVFYCNAVSTRFRVRTSDYWGQGTKVTVSS,high polyreactivity
10,QVQLVESGGGLVQAGGRLRFSCAASGSTIRRKAMGWSRQAPGKERELVARISYRGGSTYYADSVKGRFTSSRDNAKNTVYLQMNSLKPEATAVYYCAAPVYGVPEYDYWGQGPQVTVSS,low polyreactivity
11,QVQLVESGGGLVQAGGSLRLSCAASGRTFTINAMGWYRQAPGKERELVATISYSGGSTRYADSVKGRFTISRDNAKNTVYLQMNSLQPDDTAVYYCAADAGYYGRWYGHGYGYWGQGTQVTVSS,high polyreactivity
12,QVQLVESGGGLVQAGGSLRLSCAASGFTFIRNGMGWYRQAPGKERELVAAITTSGSGTYYADSVKGRFTISRDNAKNTVYLQMNSLKPEDTAVYYCATDYRYRSYSRGAHDYWGQGTQVTVSS,low polyreactivity
13,QVQLVDSGGGLDQAGGSLRLSCAASGRIFGLYAMVWYRTAPGKEKELVAHIDVSDGSTYYADSVKGRFTISLDTAKNTVYLQMNRLKPEDTAVYYCNAEDSSRWYDWYLHDYWGQGTQVTVSS,high polyreactivity
14,QVQLVESGGGLVQAGGSLRLSCAASGRIFRYYAMGWYRQAPVKDRELVARINIGGSTYYADSVKGRFTISRDNAKNTVYLKMNSLLREDTAVYYCAAVPRPVSRTIWGDYWGEGTQVTVSS,high polyreactivity
15,QVQLVESGGGLVQAGGSLRLSCAASGSIFRINAMGWYRQAPGKERELVAAISTSGGTTYYADSVKGRFTISRDNAKNTVYLQMNSLKPEDTAVYYCAARRVTSPFGSDSWGQGTQVTVSS,low polyreactivity
16,QVQLVESGGGLVQAGGSLRLSCAASGNTFYKYAMGWYRQAPGKERELVADISWSGGSTYYADSVKGRFTISRDNAKNTVYLQMNSLKREDTAVYYCNADTPVWDGHAYPVDYWGQGTQVTVSS,low polyreactivity
17,QVQLVESGGGLVQAGGSLRLSCAASGRTFGIYAMGWYRQAPGKERELVATISWRGGSTYYADSVKGRFTISRDNAKNTVYLQMNSLKPEDTAVYYCAAGYYPYWGQGTQVTVSS,low polyreactivity
18,QVQLVESGGGLVQAGGSLRLSCAASGRIFSQYAMGWYRQAPGKERELVAAISRRTGSTYYADSVKGRFTISRDNAKNTVYLQMNSLKPEDTAVYYCNKARLGWSYRQDDYLGQGTQVTVSS,high polyreactivity
19,QVQLVESGGGLVQAGGSLRLSCAASGSIFDVYTMGWYRQAPGKERELVAAISWSGGSTFYADSVKGRFTISRDNAKNTVYLQMNSLKPEDTAVYYCAARSYWRQYGRYGSWGQGTQVTVSS,high polyreactivity
20,QVQLVESGGGLVQAGGSLRLSCAASGRIFSGYVKGWYRQAPGKERELVASISRGGSTNYADSVKGRFTISRDNAKNTVYLQMNSLKPEDTAVYYCNKRWFAPPPYSYVRSYDYWGQGTQVTVSS,low polyreactivity
21,QVQLVESGGGLVQAGGSLRLSCAASGIIFKYYAMGWSRQAPGKERELVAAISWTGDSTYADSVKGRFTISRDNAKNTVYLQMNSLKPEDTAVYYCAVAFRRVRSLGEGYWGQGTQVTVSS,low polyreactivity

# — the nanobody polyreactivity screen of Harvey et al. (2022)
